Measurements reported in patent US20260250331A1 (INTERNATIONAL AIDS VACCINE INITIATIVE, published 2026).

Experiments:
[1] = target: BG505 MD39 N332-GT2 trimer (HIV-1 BG505); test: SPR, Fab and N332-GT2 trimer
N332-GT2 NP (ferritin) = N332-GT2 NP (ferritin) (HIV-1 BG505 Env fused to Helicobacter …); test: SPR; NP captured as ligand with PGT128 IgG, Fab flowed as analyte
[2] = target: BG505 MD39 N332-GT2 trimer (HIV-1 BG505); test: SPR
[3] = target: BG505 MD39 N332-GT2 trimer (HIV-1 BG505); test: SPR; reference 11mutB trimer
[4] = target: gp120-17mutE K137/R139/M141/P325; test: SPR
gp120-17mutE K137/P325 = test: SPR
gp120-17mutE K137/H325 = test: SPR
[5] = target: gp120-17mutE K137/M141/P325; test: SPR
gp120-17mutE = test: SPR
[6] = target: BG505 MD39 N332-GT2 trimer (HIV-1 BG505); test: SPR; KD scatter plot
BG505 MD39 trimer [7] = target: BG505 MD39 trimer (HIV-1 BG505); test: ELISA on BG505-MD39, BG18 as mAb titrated from about 0.001 to 50 µg/mL
BG505 MD39 trimer [8] = target: BG505 MD39 trimer (HIV-1 BG505); test: ELISA on BG505-MD39, mAb titrated from about 0.001 to 50 µg/mL

B1: BG18 iGL0 Fab (Fab, V domains shown)
VH: QVQLQESGPGLVKPSGTLSLTCAVSGGSISSSNWWSWVRQPPGKGLEWIGEIYHSGSTNYNPSLKSRVTISVDKSKNQFSLKLSSVTAADTAVYYCARNAITIFGVVIIGEYYYYGMDVWGQGTTVTVSS
VL: not shown
[1]
  Kd: 4 nM
N332-GT2 NP (ferritin)
  Kd: 3 nM

B2: BG18 iGL1 with alternate germline VL gene VL3-1 (antibody, V domains shown)
VH: QVQLQESGPGLVKPSGTLSLTCAVSGGSISSSNWWSWVRQPPGKGLEWIGEIYHSGSTNYNPSLKSRVTISVDKSKNQFSLKLSSVTAADTAVYYCARNAITIFGVVILGEYYYYGMDVWGQGTTVTVSS
VL: not shown
[2]
  binding result: binds

B3: BG18 iGL1 (antibody, V domains shown)
VH: QVQLQESGPGLVKPSGTLSLTCAVSGGSISSSNWWSWVRQPPGKGLEWIGEIYHSGSTNYNPSLKSRVTISVDKSKNQFSLKLSSVTAADTAVYYCARNAITIFGVVILGEYYYYGMDVWGQGTTVTVSS
VL: not shown
[3]
  fold improvement over 11mutB: ~130000 fold
[4]
  Kd: 0.5 nM
gp120-17mutE K137/P325
  Kd: 11 nM
gp120-17mutE K137/H325
  Kd: 5.9 nM
[5]
  Kd: 2.5 nM
gp120-17mutE
  Kd: ~14000 nM
[2]
  Kd: 0.213 nM

B4: BG18 iGL1 with alternate germline VL gene VL3-19 (antibody, V domains shown)
VH: QVQLQESGPGLVKPSGTLSLTCAVSGGSISSSNWWSWVRQPPGKGLEWIGEIYHSGSTNYNPSLKSRVTISVDKSKNQFSLKLSSVTAADTAVYYCARNAITIFGVVILGEYYYYGMDVWGQGTTVTVSS
VL: SSELTQDPAVSVALGQTVRITCQGDSLRSYYASWYQQKPGQAPVLVIYGKNNRPSGIPDRFSGSSSGNTASLTITGAQAEDEADYYCNSRDSSGNHWVFGGGTKLTVL
[2]
  binding result: binds

B5: BG18 iGL1 with alternate germline VL gene VL2-8 (antibody, V domains shown)
VH: QVQLQESGPGLVKPSGTLSLTCAVSGGSISSSNWWSWVRQPPGKGLEWIGEIYHSGSTNYNPSLKSRVTISVDKSKNQFSLKLSSVTAADTAVYYCARNAITIFGVVILGEYYYYGMDVWGQGTTVTVSS
VL: QSALTQPPSASGSPGQSVTISCTGTSSDVGGYNYVSWYQQHPGKAPKLMIYEVSKRPSGVPDRFSGSKSGNTASLTVSGLQAEDEADYYCSSYAGSNNFWVFGGGTKLTVL
[2]
  binding result: binds

B6: pre13 (antibody, V domains shown)
VH: QVQLQESGPGLVKPSGTLSLTCAVSGGSISSSNWWSWVRQPPGKGLEWIGEIYHSGSTNYNPSLKSRVTISVDKSKNQFSLKLSSVTAADTAVYYCAKALNTIFGVVTLTQYYYYGMDVWGQGTTVTVSS
VL: not shown
[6]
  binding result: no binding (tested: 100 µM)

B7: pre14 (antibody, V domains shown)
VH: QVQLQESGPGLVKPSGTLSLTCAVSGGSISSSNWWSWVRQPPGKGLEWIGEIYHSGSTNYNPSLKSRVTISVDKSKNQFSLKLSSVTAADTAVYYCARGRITIFGVVTLRGYYYYGMDVWGQGTTVTVSS
VL: not shown
notes: also called NGS pre14; NGS Pre14
[1]
  Kd: 136 nM
N332-GT2 NP (ferritin)
  Kd: 94 nM

B8: pre4 (antibody, V domains shown)
VH: QVQLQESGPGLVKPSGTLSLTCAVSGGSISSSNWWSWVRQPPGKGLEWIGEIYHSGSTNYNPSLKSRVTISVDKSKNQFSLKLSSVTAADTAVYYCARERDTIFGVVSLRVYYYYGMDVWGQGTTVTVSS
VL: not shown
[6]
  binding result: no binding (tested: 100 µM)

B9: BG18 iGL1 with alternate germline VL gene VL3-10 (antibody, V domains shown)
VH: QVQLQESGPGLVKPSGTLSLTCAVSGGSISSSNWWSWVRQPPGKGLEWIGEIYHSGSTNYNPSLKSRVTISVDKSKNQFSLKLSSVTAADTAVYYCARNAITIFGVVILGEYYYYGMDVWGQGTTVTVSS
VL: SYELTQPPSVSVSPGQTARITCSGDALPKKYAYWYQQKSGQAPVLVIYKDSKRPSGIPERFSGSSSGTMATLTISGAQVEDEDDYYCYSADYSGNHWVFGGGTKLTVL
[2]
  binding result: binds

B10: pre15 (antibody, V domains shown)
VH: QVQLQESGPGLVKPSGTLSLTCAVSGGSISSSNWWSWVRQPPGKGLEWIGEIYHSGSTNYNPSLKSRVTISVDKSKNQFSLKLSSVTAADTAVYYCARDIHNSFGVVSLDQNYYYGMDVWGQGTTVTVSS
VL: not shown
[6]
  binding result: no binding (tested: 100 µM)

B11: BG18 Fab (Fab, V domains shown)
VH: QVQLRESGPGLVKPSETLSLSCTVSNDSRPSDHSWTWVRQSPGKALEWIGDIHYNGATTYNPSLRSRVRIELDQSIPRFSLKMTSMTAADTGMYYCARNAIRIYGVVALGEWFHYGMDVWGQGTAVTVSS
VL: SSELTQPPSVSVSPGQTARITCSGAPLTSRFTYWYRQKPGQAPVLIISRSSQRSSGWSGRFSASWSGTTVTLTIRGVQADDEADYYCQSSDTSDSYKMFGGGTKLTVL
notes: also called mature BG18; 354BG18
BG505 MD39 trimer [7]
  EC50 (read off the curve): ~0.02 µg/mL

B12: BG18.6H BG18.11L (antibody, V domains shown)
VH: QVQLQESGPGLVKPSGTLSLTCAVSGDSRPSDHSWSWVRQPPGKGLEWIGEIYYSGSTNYNPSLKSRVTISVDKSKNQFSLKLSSVTAADTAVYYCARNAIRIYGVVALGEWFHYGMDVWGQGTTVTVSS
VL: SYELTQPPSVSVSPGQTARITCSGDALPSRYAYWYQQKPGQAPVLVISRDSQRSSGISGRFSGSWSGTTVTLTISGVQAEDEADYYCQSSDSSDTYKVFGGGTKLTVL
notes: also called less mutated variant of BG18
BG505 MD39 trimer [8]
  EC50 (read off the curve): ~0.05 µg/mL
